Values joined by “and” are separate entries in the source; they are usually repeats but may differ in a detail not shown here. Equal entries are not always repeated. “Also recorded” adds a separate entry of the source.
Assays:
CatD [1] = target: T1, CatD (Mus musculus, UniProt P18242); assay: Aβ-degrading activity in soluble brain extracts at pH 4.0; type: biochemical; details: 15-day-old mice, 4 replicates
T1 construct: freshly harvested brain tissue from 15-day-old mice was dissociated in 20 mM Tris-HCl, pH 7.4; from tissue; host or cells: mouse brain, soluble extract (15-day-old WT and CatD-HET mice)
Description: (§1) As an initial step towards elucidating the role of CatD in Aβ proteostasis, we quantified rates of Aβ degradation in vitro in soluble brain extracts from CatD-KO mice and wild-type controls as a function of pH, focusing on extracts from 15-day-old mice, due to the premature lethality of CatD-KO mice that occurs by ~ 4 weeks of age. Consistent with previous results, Aβ-degrading activity was present principally within two pH ranges: at neutral pH (pH 7.5 to 9.5) and—to a considerably larger extent—also at acidic pH (pH 2.5 to 4.5) (Fig. 1a). The Aβ-degrading activity at neutral pH was inhibited by excess insulin and reflects the activity of the neutral protease insulin-degrading enzyme (IDE), as shown previously by McDermott and Gibson. […] To extend and confirm these findings, we quantified Aβ degradation at pH 4.0 in soluble brain extracts from CatD-KO and WT mice, as well as heterozygous null (CatD-HET) mice (Fig. 1b). […] Consistent with this, levels of both preprocathepsin D and mature CatD protein in the CatD-HET animals were also determined to be > 50% of WT levels (Fig. 1c, d), with mature CatD protein being reduced by only 26.0 ± 14.2% relative to WT controls (p > 0.05; Fig. 1d). […]

CatD [2] = target: T2, CatD (Homo sapiens, UniProt P07339); assay: Competitive inhibition of CatD activity, fluorogenic substrate (fluorescence dequenching); type: biochemical; details: mean ± SEM of 4–8 replicates (Fig. 4f)
T2 construct: purchased Enzo Life Sciences
Method: To address this, we tested the extent to which different peptides at identical concentrations inhibited CatD activity monitored with a fluorogenic substrate.
For the determination of the pH dependence of Aβ degradation in soluble brain extracts, freshly harvested brain tissue from 15-day-old mice was dissociated in 20 mM Tris-HCl, pH 7.4 at 4 °C using a Dounce homogenizer, then centrifuged at 1000×g. The resulting supernatant was diluted 1:20 in Britton-Robinson buffers of different pHs, and CatD activity was quantified either using a well-characterized fluorescence polarization-based Aβ degradation assay as described or by monitoring hydrolysis of the CatD-specific fluorogenic substrate, Mca-[…]-Dnp. Kinetic experiments were conducted using freshly prepared, monomeric Aβ peptides separated from aggregated species by size-exclusion chromatography (SEC) and characterized as described. Aβ peptides and PepA were diluted in neutral Dilution Buffer (20 mM Tris, pH 8.0 supplemented with 0.1% BSA), with addition of DMSO as appropriate, and reactions were initiated by transfer into Assay Buffer (60 mM Na-citrate; 80 mM Na2HPO4, pH 4.0; Sigma) supplemented with purified human CatD (Enzo Life Sciences). Where required, reactions were terminated by adjustment to neutral pH with 10× Stop Buffer (0.2 M Tris-HCL, pH 9.5 supplemented with 10 μM PepA). […] Competitive inhibition experiments were conducted using either ELISAs, an Aβ-degradation assay or the fluorogenic substrate.

[3] = target: T3, insulin-degrading enzyme (IDE) (Mus musculus, UniProt Q9JHR7); assay: Aβ-degrading activity in soluble brain extracts at neutral pH; type: biochemical; details: 15-day-old mice; excess insulin; pH 7.5 to 9.5
T3 construct: freshly harvested brain tissue from 15-day-old mice was dissociated in 20 mM Tris-HCl, pH 7.4; from tissue; host or cells: mouse brain, soluble extract (15-day-old mice)
Description: as §1

[4] = target: Cathepsin D (purified human CatD, Enzo Life Sciences) (human) (UniProt P07339)

T2 sequence (P07339 65-412): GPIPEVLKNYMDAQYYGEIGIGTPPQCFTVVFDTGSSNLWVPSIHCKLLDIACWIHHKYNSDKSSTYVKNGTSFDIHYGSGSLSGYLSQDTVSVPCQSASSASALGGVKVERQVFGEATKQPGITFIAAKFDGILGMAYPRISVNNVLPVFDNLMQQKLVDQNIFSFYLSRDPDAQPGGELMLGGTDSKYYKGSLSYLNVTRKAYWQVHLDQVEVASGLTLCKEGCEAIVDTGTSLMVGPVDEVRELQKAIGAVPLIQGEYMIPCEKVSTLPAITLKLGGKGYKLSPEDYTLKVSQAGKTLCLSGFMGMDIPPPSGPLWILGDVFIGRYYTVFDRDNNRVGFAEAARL
T1 sequence (P18242 65-410): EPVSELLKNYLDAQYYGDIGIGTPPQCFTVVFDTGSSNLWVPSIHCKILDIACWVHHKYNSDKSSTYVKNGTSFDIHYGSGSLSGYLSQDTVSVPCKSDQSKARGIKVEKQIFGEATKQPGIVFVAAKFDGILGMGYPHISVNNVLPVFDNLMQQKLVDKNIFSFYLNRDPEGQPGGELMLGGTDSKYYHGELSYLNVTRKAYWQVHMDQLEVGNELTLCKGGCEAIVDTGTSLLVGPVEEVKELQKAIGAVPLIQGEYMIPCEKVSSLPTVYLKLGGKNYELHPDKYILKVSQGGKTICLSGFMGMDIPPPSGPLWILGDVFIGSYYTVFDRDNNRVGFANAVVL
T3 sequence (Q9JHR7 whole entry): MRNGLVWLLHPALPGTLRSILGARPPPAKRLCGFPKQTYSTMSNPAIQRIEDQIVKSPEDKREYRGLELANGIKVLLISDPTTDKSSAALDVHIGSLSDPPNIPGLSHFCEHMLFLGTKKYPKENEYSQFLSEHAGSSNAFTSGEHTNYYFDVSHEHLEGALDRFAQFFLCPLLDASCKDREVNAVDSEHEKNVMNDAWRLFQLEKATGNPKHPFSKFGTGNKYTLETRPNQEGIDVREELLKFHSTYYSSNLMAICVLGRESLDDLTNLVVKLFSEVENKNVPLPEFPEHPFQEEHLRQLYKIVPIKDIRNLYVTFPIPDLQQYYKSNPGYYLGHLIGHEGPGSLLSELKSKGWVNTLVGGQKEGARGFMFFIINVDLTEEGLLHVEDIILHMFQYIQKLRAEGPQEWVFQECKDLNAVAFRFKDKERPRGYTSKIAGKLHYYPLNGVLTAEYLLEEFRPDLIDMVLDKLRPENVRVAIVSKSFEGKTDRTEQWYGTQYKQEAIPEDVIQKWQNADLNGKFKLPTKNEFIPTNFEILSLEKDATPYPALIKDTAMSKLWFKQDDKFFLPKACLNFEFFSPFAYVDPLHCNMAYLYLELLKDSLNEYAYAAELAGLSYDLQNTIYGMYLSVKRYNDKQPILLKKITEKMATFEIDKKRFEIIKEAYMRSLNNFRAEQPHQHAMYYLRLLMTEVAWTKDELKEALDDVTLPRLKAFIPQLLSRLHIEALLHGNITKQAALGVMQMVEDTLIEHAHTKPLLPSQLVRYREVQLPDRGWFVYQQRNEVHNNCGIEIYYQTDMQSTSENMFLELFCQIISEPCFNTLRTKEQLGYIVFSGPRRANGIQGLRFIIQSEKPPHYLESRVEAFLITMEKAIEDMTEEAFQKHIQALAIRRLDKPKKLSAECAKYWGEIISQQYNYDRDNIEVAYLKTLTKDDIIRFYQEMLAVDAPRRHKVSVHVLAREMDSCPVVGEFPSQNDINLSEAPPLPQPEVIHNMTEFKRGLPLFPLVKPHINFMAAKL

Row | Substance | inhibition of CatD activity at 1 μM peptide (CatD [2]) | further results
1 | pepstatin A | – | inhibition of Aβ-degrading activity in WT and CatD-HET brain extracts (CatD [1]): largely inhibited; also recorded: inhibited almost completely
2 | Aβ(33–42): short C-terminal fragment of Aβ42 (GLMVGGVVIA; Amyloid-beta protein 42; UniProt P05067 704-713, looked up, fragment) | failed to inhibit significantly | –
3 | Aβ(33–40): C-terminal fragment corresponding to Aβ(33–42), ending at position 40 (GLMVGGVV; Amyloid-beta protein 40; UniProt P05067 704-711, looked up, fragment) | modest but statistically significant inhibition | –
4 | rodent Aβ42: full-length murine Aβ ending at position 42 (DAEFGHDSGFEVRHQKLVFFAEDVGSNKGAIIGLMVGGVVIA) | > 90% | inhibition of CatD activity at 1 μM peptide (CatD [2]; listed as mAβ(1–42)): strongly inhibited
5 | insulin | – | inhibition of Aβ-degrading activity at neutral pH in brain extracts [3]: inhibited
6 | full-length murine Aβ (mAβ(1–42)) (from UniProt P12023 672-713) (peptide) | – | inhibition of CatD activity (fluorogenic substrate) by 1 μM peptide [4]: > 90%
7 | Aβ(17–42): α-secretase-derived p3 fragment of APP ending at position 42 (LVFFAEDVGSNKGAIIGLMVGGVVIA; Amyloid-beta protein 42; UniProt P05067 688-713, looked up, fragment) | strongly inhibited and > 90% | –

From article PMC7339583 (Alzheimer's Research & Therapy, 2020)
